Drawing on paper PMC3791464 (eLife, 2013), this text covers response (arbitrary units) for two variants.

B1: GFP–Orc6 wild type (fly transgene) [Drosophila melanogaster] / Drosophila Orc2, endogenous in fly ovaries [Drosophila (endogenous in fly ovaries)] (parent)
chain 1: MTTLIEQLITKMGLREEPNVLEKTTELVRLLELRSTNVPLQINEYGKIVLCADLASCMIGIAFDKEQALKLSGLRKSQYLNNKRMFEKLLDLNKLASVNDICVQLGLNEVARKAEELMTLFKGVAATEDMGTDTSHPQYATMAVFQACRLLKKKVSKSKLMPFSNLRPSQFQLLEQQWERMIAKHHKESKVPSSTDMEGKLKENQNENIKGHEAKKAHKPPPEDYEIWKARMLAKAQAKLKELEASQSHMDSQLLEA
chain 2: MSASNKGGYKTPRKENLMSIENLTNSEEESEDLNTAMVGNAVESQPKVTSRRSTRRPSPTKKYQAYQKESNGKGQEERIVVNYVEMSDERSSDAEDQEEEESIEESENAARPAAKDLHLIQSEYNVAGTSMFGFNTPKKRDAMALAALNATPCTPKTPKTPRLGVKTPDTKRKKSMDQPKTPAHVRTRVKKQIAKIVADSDEDFSGDESDFRPSDEESSSSSSSSDAGNSSDNDAADDEPKTPSRARRAIVVPVLPKTPSAARLRQSARAKKSNEFVPESDGYFHSHASSKILTSDHTLDRLKNPRLAADRVFSLLSEIKTSAEHEGSINAIMEEYRSYFPKWMCILNEGFNILLYGLGSKHQLLQSFHREVLHKQTVLVVNGFFPSLTIKDMLDSITSDILDAGISPANPHEAVDMIEEEFALIPETHLFLIVHNLDGAMLRNVKAQAILSRLARIPNIHLLASIDHINTPLLWDQGKLCSFNFSWWDCTTMLPYTNETAFENSLLVQNSGELALSSMRSVFSSLTTNSRGIYMLIVKYQLKNKGNATYQGMPFRDLYSSCREAFLVSSDLALRAQLTEFLDHKLVKSKRSVDGSEQLTIPIDGALLQQFLEEQEKK

This experiment covers variants of B1. In words: GFP fluorescence of anti-Orc2 immunoprecipitates. As to conditions: with Drosophila Orc2, endogenous in fly ovaries [Drosophila (endogenous in fly ovaries)]; fly ovary extracts; three independent experiments; read off a plot.
Consider chain 1 D224A Y225A, for which the response (arbitrary units) was 550.

Take chain 1 W228A K229A: the response (arbitrary units) was determined as 470.
